Results taken from publication PMC3790809.
pKd: −log10 of the molar value. Several values for one entry are separate records, joined by “and”; a condition that tells them apart may be missing. Equal entries are not always repeated.

Columns and labels:
[1] = target: YsaN-His (full length YsaN, soluble) (Yersinia enterocolitica ATCC51871); assay: SPR
[2] = target: YsaNflr-His (full length YsaN, refolded) (Yersinia enterocolitica ATCC51871); assay: SPR
[3] = target: YsaNΔ(1-5)-His (Yersinia enterocolitica ATCC51871); assay: SPR
[4] = target: YsaNΔ(411-430)-His (Yersinia enterocolitica ATCC51871); assay: SPR
[5] = target: YsaNΔ(426-430)-His (Yersinia enterocolitica ATCC51871); assay: SPR
[6] = target: YsaN-His (full length YsaN, YE3544, with N-terminal His tag) (Yersinia enterocolitica ATCC51871 (serotype O:8, biovar 1B))
[7] = target: YsaN-His (full length YsaN, YE3544, with N-terminal His tag) (Yersinia enterocolitica ATCC51871 (serotype O:8, biovar 1B)); assay: SEC
[8] = target: YsaN-His (full length YsaN, YE3544, with N-terminal His tag) (Yersinia enterocolitica ATCC51871 (serotype O:8, biovar 1B)); assay: SPR
[9] = target: YsaNΔ(1–5)-His (Yersinia enterocolitica ATCC51871 (serotype O:8, biovar 1B)); assay: SPR
[10] = target: YsaNΔ(411–430)-His (Yersinia enterocolitica ATCC51871 (serotype O:8, biovar 1B)); assay: SPR
[11] = target: YsaNΔ(426–430)-His (Yersinia enterocolitica ATCC51871 (serotype O:8, biovar 1B)); assay: SPR
[12] = target: YsaN-His (full length YsaN, YE3544, with N-terminal His tag) (Yersinia enterocolitica ATCC51871 (serotype O:8, biovar 1B)); assay: dynamic light scattering; YsaN-His 0.7 mg/ml, 25°C, 25 mM Tris, 300 mM NaCl, 2% glycerol; mass from the hydrodynamic size
[13] = target: YsaL-His (YE3555 with N-terminal His tag, refolded) (Yersinia enterocolitica ATCC51871 (serotype O:8, biovar 1B)); assay: SEC
[14] = target: YsaL-His (YE3555 with N-terminal His tag, refolded) (Yersinia enterocolitica ATCC51871 (serotype O:8, biovar 1B)); assay: cross-linking; refolded YsaL-His (100 µg in 30 µl), 2 µL of 1.5% glutaraldehyde, 25°C, 5 min; 50 mM sodium phosphate pH 8.0, 150 mM NaCl; SDS-PAGE

untagged YsaL (YE3555), refolded (natural protein)
Ka [1]: 2.9e+07 M⁻¹
koff [1]: 0.000119 s⁻¹
kon [1]: 3450 M⁻¹ s⁻¹
Ka [2]: 2.38e+08 M⁻¹
koff [2]: 1.91e-05 s⁻¹
kon [2]: 4540 M⁻¹ s⁻¹
Ka [3]: 20300 M⁻¹
Ka [4]: 3.86e+06 M⁻¹
pKd [4]: 6.59
koff [4]: 0.000132 s⁻¹
kon [4]: 510 M⁻¹ s⁻¹
Ka [5]: 882000 M⁻¹

untagged YsaL (YE3555) (natural protein)
inhibition of the ATPase activity of YsaN-His (malachite green assay); untagged YsaL in the soluble co-purified untagged YsaL-YsaN-His complex, highly comparable with YsaL-His added at 2∶1 [6]: 73%
stoichiometry N (YsaL per YsaN) [7]: 2
pKd [8]: 7.46 and 7.38
pKd [9]: 3.40
pKd [10]: 7.00
pKd [11]: 7.00

YsaN-His (full length YsaN, YE3544, with N-terminal His tag) (enzyme)
stoichiometry N [7]: 12
percent of sample in the oligomeric form [12]: 90%

YsaL-His (YE3555 with N-terminal His tag, refolded) (natural protein)
stoichiometry N [13]: 2
stoichiometry N [14]: 2
